± gives the uncertainty stated by the source.
Assay: protein stability index of a GFP-peptide fusion (yeast GPS) (PSI 1-4); higher = more stable; sorted into four equal gates, so the index is relative within each strain
Summary of the method: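 Yeast carrying a pooled library were grown to mid-log phase in leucine-free medium. Each library plasmid expresses Cherry and has a tiled 17-residue yeast protein peptide fused downstream of GFP. Cells were sorted into four equal gates by GFP/Cherry ratio, and plasmids from each gate were PCR-amplified, Illumina-sequenced and assigned to strains by barcode. Summing, across gates, the read frequency times the gate number gave each peptide's protein stability index.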

Sequence	protein stability index (doa10∆)	protein stability index (pdr5∆)	protein stability index (san1∆)	protein stability index (ubr1∆)
EDVTPVPSDSTRKKGGR [RPS14A]	3.1 ± 0.13	3.24 ± 0.079	3.41 ± 0.065	3.45 ± 0.075
HISFNFSMLQMAFEASA [BRR2]	1.42 ± 0.075	1.45 ± 0.066	1.41 ± 0.23	1.24 ± 0.06
INIQKYNNNTIRKLLEK [CSI1]	2.85 ± 0.25	2.51 ± 0.17	–	2.54 ± 0.11
VNGSTTAGVGSTPNFGG [SIN4]	3.58 ± 0.079	3.33 ± 0.095	3.4 ± 0.078	3.25 ± 0.077
RQQQQRSILQSLNPALQ [SWI1]	1.76 ± 0.051	1.92 ± 0.06	1.54 ± 0.084	1.89 ± 0.053
ARAVQDNGESAFRTLRL [RPL13A]	3 ± 0.13	2.88 ± 0.1	1.57 ± 0.098	2.87 ± 0.096
VYRFVTENAIEEKVIER [ISW2]	2.42 ± 0.11	2.46 ± 0.14	2.5 ± 0.25	2.7 ± 0.063
NQLDGFDDRGDVKVIMA [RPT2]	3.47 ± 0.17	3.44 ± 0.27	3.09 ± 0.1	3.52 ± 0.17
TPLFHALAEGHGDAAVL [NAS6]	–	3.1 ± 0.1	3.07 ± 0.091	2.61 ± 0.12
NFSGLNGGITNTATNAL [YOR098C/NUP1]	3.15 ± 0.12	2.91 ± 0.13	2.84 ± 0.084	3.34 ± 0.11
TGKDCVAIACDLRLGSQ [PUP3]	1.38 ± 0.088	1.48 ± 0.092	2.32 ± 0.064	2.7 ± 0.061
GSSDEDLKSLNVRDDMK [SSN2]	3.29 ± 0.13	3.58 ± 0.11	3.38 ± 0.078	3.2 ± 0.11
LGKYDLTVIEKLDSKKI [SRP68]	–	2.86 ± 0.23	3.53 ± 0.12	3.63 ± 0.16
DKLDDDGLIAPGVRVSG [RPB2]	1.65 ± 0.19	2.23 ± 0.1	2.48 ± 0.27	1.71 ± 0.11
NDIPLGSGQPDNDTVVT [SRB8]	3.3 ± 0.12	3.18 ± 0.16	2.51 ± 0.14	3.12 ± 0.28
VILGDANSSTIRVTNSF [RPN8]	3.01 ± 0.092	2.94 ± 0.072	2.89 ± 0.066	3.06 ± 0.052
NKNNNNRHNLLNDVVSF [SWI1]	2.99 ± 0.061	1.98 ± 0.036	1.99 ± 0.037	1.9 ± 0.034
QRKNGVTNSPLFQTIEK [ECM29]	3.29 ± 0.16	3.1 ± 0.14	2.19 ± 0.28	3.11 ± 0.086
IIVAGYDDKNKGEVYTI [PRE3]	3 ± 0.083	3.12 ± 0.096	3.42 ± 0.089	3.45 ± 0.098
PNTKDAMSLYHSPFPFN [PRP8]	2.64 ± 0.049	2.55 ± 0.053	2.63 ± 0.06	2.71 ± 0.036
LEYWCNPPYSQCIVYPN [SOH1]	2.03 ± 0.048	2.27 ± 0.045	2.05 ± 0.054	2.13 ± 0.037
PITNKERSLAVKYINFG [RPC31]	3.02 ± 0.14	3.11 ± 0.16	2.65 ± 0.084	2.48 ± 0.18
ELSKEEKERLESLTKEI [SMC3]	3.01 ± 0.13	3.13 ± 0.15	3 ± 0.059	3.17 ± 0.077
TTLNIKVEKRVLGLTIL [SMB1]	1.86 ± 0.075	2.79 ± 0.093	2.39 ± 0.14	2.27 ± 0.08
LKENTYVMERPKNVPTS [YDL116W/NUP84]	1.81 ± 0.1	2.13 ± 0.12	2.79 ± 0.15	2.96 ± 0.093
PKATSSAGAVFKSSVEM [YOR098C/NUP1]	2.89 ± 0.12	1.86 ± 0.11	2.69 ± 0.1	2.45 ± 0.047

Sequence	protein stability index (doa10∆)	protein stability index (pdr5∆)	protein stability index (san1∆)	protein stability index (ubr1∆)
MNLDFDIEEGPITSKSW [MCD1]	2.85 ± 0.15	3.16 ± 0.093	3.17 ± 0.072	3.49 ± 0.18
VLYHTSGAITFVNETPR [PRP8]	2.06 ± 0.06	2.24 ± 0.075	2.43 ± 0.068	1.53 ± 0.04
GVPNYLVQLEPHLFVNG [SSN2]	1.96 ± 0.069	1.97 ± 0.063	1.94 ± 0.084	1.96 ± 0.12
VRIIKHTLDIINVLTDQ [RPS5]	2.11 ± 0.053	2.46 ± 0.059	2.62 ± 0.053	2.4 ± 0.044
LLFPKSTIVNLAREVPQ [DPB4]	1.77 ± 0.14	2.24 ± 0.25	1.72 ± 0.18	1.94 ± 0.14
IKNVIVSNRVAAPARAG [RPP0]	1.82 ± 0.13	2.44 ± 0.11	3 ± 0.14	1.96 ± 0.22
SDAAKEPPGSNTSFSFT [YOR098C/NUP1]	1.58 ± 0.046	1.96 ± 0.048	2.33 ± 0.053	1.91 ± 0.045
GSGAPVYLTAVLEYLAA [HTA1]	1.64 ± 0.076	1.7 ± 0.077	1.55 ± 0.12	1.75 ± 0.045
LNSLSPQAILAKNSIID [SWI1]	1.79 ± 0.033	1.72 ± 0.029	1.8 ± 0.044	1.75 ± 0.026
LNINNPNFLIMQGKITK [SMC2]	3.39 ± 0.26	2.47 ± 0.19	2.87 ± 0.13	–
IGSGAMSPLECRNILGV [RPP1]	1.93 ± 0.03	2.43 ± 0.046	2.19 ± 0.064	2.38 ± 0.034
VKDFTSLGFNEVFSRPE [RPO21]	–	2.56 ± 0.27	2.96 ± 0.27	2.9 ± 0.19
AGHVSGVITVHNVFSKE [RPN14]	1.85 ± 0.15	1.75 ± 0.14	2.92 ± 0.077	2.79 ± 0.13
RNVVEDINQAKDFIENV [BRN1]	3.25 ± 0.13	3.31 ± 0.097	3.24 ± 0.078	3.25 ± 0.072
FQIIDTLLPGLQDEVMN [RPS2]	2.32 ± 0.082	1.72 ± 0.059	2.22 ± 0.091	2.09 ± 0.05
TISQALLNAADRDALSG [PUP3]	2.82 ± 0.12	2.11 ± 0.097	1.95 ± 0.17	1.95 ± 0.068
VSVPVSGQKTNRQVMHK [SIR3]	2.58 ± 0.13	3.27 ± 0.14	3.05 ± 0.13	2.86 ± 0.17
DLDLNEQVRKMYQEWED [NSL1]	2.97 ± 0.13	3.39 ± 0.11	3.26 ± 0.071	2.92 ± 0.11
DINPPLVFILAVVGNNM [RRP42]	1.84 ± 0.083	1.78 ± 0.058	1.96 ± 0.082	1.52 ± 0.046
STVQTPITASMAAALPN [PGD1]	1.59 ± 0.074	1.55 ± 0.099	1.37 ± 0.11	1.4 ± 0.05
AGSAALKIIHDTFRWVG [RPO31]	3.23 ± 0.093	2.85 ± 0.12	1.19 ± 0.17	3.24 ± 0.063
SPTYSPTSPAYSPTSPS [RPO21]	3.08 ± 0.045	3.05 ± 0.042	3 ± 0.032	2.93 ± 0.033
MQRQQQGISGSQQNIVP [SNF2]	2.91 ± 0.059	3.14 ± 0.05	3.19 ± 0.046	3.01 ± 0.047
SHAIRLGNGVACDPSEI [RGR1]	1.52 ± 0.088	1.64 ± 0.089	2.91 ± 0.17	2.16 ± 0.15
IIRLLPINLENNDGSYG [SRB8]	1.7 ± 0.064	1.24 ± 0.048	1.21 ± 0.077	1.39 ± 0.048
LKVDPDMLTWVDSNLPD [RPC40]	3.02 ± 0.082	3.13 ± 0.062	2.54 ± 0.16	3.26 ± 0.073
